± gives the standard deviation of the averaged measurements.
B1: library; a variant is named by its letters at N, in order (parent)
chain: GCUGUCACCGAGAAACUGUGAAGUAUAUCUUAAACCUGGGCACUUAAAAGAUAUAUGGAGUUAGUAGUGCAACCUGCUCGGUCUGAUGAGUCCNNNNNNGGACGAAACAGC

Experiments:
[1] = variants of: B1; assay: FACS-Seq fitted mean relative fluorescence mCherry/BFP without ligand (log10 relative fluorescence); HEK293T; ligand: cyclic di-GMP (c-di-GMP-II aptamer); higher = higher reporter protein expression; details: ligand present: no
Outline: (§1)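 After lentiviral transduction, HEK293T library cells bearing an mCherry ribozyme-switch reporter and an EF1α-BFP marker were enriched. They were then held for 48 h with or without ligand and sorted by mCherry/BFP into 6 bins, and each bin's genomic DNA was PCR-amplified, barcoded and MiSeq-sequenced. Fluorescence is expressed as a normalized fitted mean: the normal mean of log10(mCherry/BFP) bin counts, scaled to five spiked-in control ribozymes.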

[2] = variants of: B1; assay: normalized RNA/DNA level without ligand (relative to sTRSVctl = 100) (log10 (% of sTRSVctl)); HEK293T; ligand: cyclic di-GMP (c-di-GMP-II aptamer); higher = less ribozyme self-cleavage, higher mRNA level; details: reporter: mCherry (pCS4076), ligand present: no
Experimental: (§2)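 Hammerhead (sTRSV) ribozyme switch libraries with a ligand aptamer grafted on stem I and a randomized N4-6 loop II, cloned into the 3' UTR of mCherry and transiently transfected into HEK293T cells; RNA-Seq 72 h post transfection with ligand added 1 h before transfection; RNA read count / plasmid DNA read count normalized to the non-cleaving sTRSVctl (x100), log10; sequences with >100 DNA reads. FACS-Seq: lentiviral library sorted into 6 bins after 48 h ligand, log-normal fit mean of mCherry/BFP scaled to controls. Printed sequences are partial switch sequences.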

[3] = variants of: B1; assay: FACS-Seq fitted mean relative fluorescence mCherry/BFP with ligand (log10 relative fluorescence); HEK293T; ligand: cyclic di-GMP (c-di-GMP-II aptamer); ligand concentration (+) FACS-Seq: 1 mM; higher = higher reporter protein expression; details: ligand present: yes
Outline: as §1

[4] = variants of: B1; assay: normalized RNA/DNA level with ligand (relative to sTRSVctl = 100) (log10 (% of sTRSVctl)); HEK293T; ligand: cyclic di-GMP (c-di-GMP-II aptamer); ligand concentration (+) RNA-Seq: 1 mM; higher = less ribozyme self-cleavage, higher mRNA level; details: reporter: mCherry (pCS4076), ligand present: yes
Experimental: as §2

Variant	FACS-Seq fitted mean (log10) [1]	normalized RNA/DNA level without ligand (log10) [2]	FACS-Seq fitted mean (log10) [3]	normalized RNA/DNA level with ligand (log10) [4]
ACAGUU	-0.579 ± 0.027	1.32 ± 0.13	-0.312 ± 0.09	1.5 ± 0.073
GCAGUA	-0.229 ± 0.042	1.59 ± 0.035	0.0693 ± 0.0072	1.7 ± 0.12
CCCAAA	-0.275 ± 0.06	1.48 ± 0.062	0.0473 ± 0.081	1.69 ± 0.1
ACAAAU	-0.483 ± 0.17	1.37 ± 0.13	-0.291 ± 0.042	1.57 ± 0.08
ACAAAA	-0.498 ± 0.059	1.31 ± 0.11	-0.271 ± 0.018	1.52 ± 0.069
UCACGA	-0.203 ± 0.066	1.632 ± 0.0055	0.146 ± 0.017	1.81 ± 0.091
UCACGU	-0.191 ± 0.32	1.6 ± 0.044	0.0669 ± 0.07	1.79 ± 0.074
GCACUC	-0.286 ± 0.015	1.5 ± 0.056	0.125 ± 0.0091	1.69 ± 0.17
GCACUA	-0.172 ± 0.017	1.48 ± 0.023	0.225 ± 0.12	1.75 ± 0.062
GCACUU	-0.492 ± 0.071	1.588 ± 0.015	-0.235 ± 0.081	1.8 ± 0.063
CCCCCA	-0.0821 ± 0.078	1.71 ± 0.046	0.187 ± 0.091	1.83 ± 0.14
CCAGGC	-1.034 ± 0.0013	1.636 ± 0.0075	-0.924 ± 0.11	1.76 ± 0.15
GCCCCA	-0.109 ± 0.025	1.72 ± 0.024	0.138 ± 0.041	1.86 ± 0.085
GCCCCU	0.163 ± 0.17	1.761 ± 0.0048	0.336 ± 0.019	1.89 ± 0.077
ACCCUC	-0.504 ± 0.046	1.784 ± 0.015	-0.217 ± 0.028	1.91 ± 0.057
CCACAU	0.0115 ± 0.077	1.54 ± 0.052	0.346 ± 0.031	1.76 ± 0.11
ACAGCG	-0.358 ± 0.013	1.75 ± 0.0045	-0.079 ± 0.031	1.86 ± 0.1
GAUUAA	-0.0108 ± 0.066	1.55 ± 0.057	0.211 ± 0.1	1.74 ± 0.087
ACAAUA	-0.5113 ± 0.0047	1.33 ± 0.094	-0.23 ± 0.047	1.55 ± 0.14
ACAAUU	-0.5008 ± 0.0033	1.32 ± 0.093	-0.2 ± 0.0047	1.52 ± 0.089
ACAAUC	-0.873 ± 0.017	1.49 ± 0.043	-0.61 ± 0.16	1.7 ± 0.15
ACAAUG	-0.431 ± 0.026	1.39 ± 0.15	-0.0705 ± 0.082	1.66 ± 0.098
AAUUAA	-0.5829 ± 0.0026	1.51 ± 0.063	-0.251 ± 0.11	1.72 ± 0.074
AAUGAU	-0.104 ± 0.17	1.581 ± 0.0096	0.206 ± 0.048	1.76 ± 0.034

Variant	FACS-Seq fitted mean (log10) [1]	normalized RNA/DNA level without ligand (log10) [2]	FACS-Seq fitted mean (log10) [3]	normalized RNA/DNA level with ligand (log10) [4]
GCAGCU	-0.242 ± 0.076	1.65 ± 0.018	-0.0553 ± 0.039	1.78 ± 0.11
UCAAUG	-0.476 ± 0.064	1.51 ± 0.12	-0.188 ± 0.01	1.78 ± 0.027
UCAAUA	-0.525 ± 0.048	1.4 ± 0.085	-0.157 ± 0.078	1.63 ± 0.089
UCAAUU	-0.69 ± 0.034	1.585 ± 0.0066	-0.175 ± 0.22	1.77 ± 0.13
CCCCAC	-0.891 ± 0.018	1.75 ± 0.033	-0.665 ± 0.018	1.88 ± 0.097
CCCCAU	-0.0362 ± 0.2	1.68 ± 0.022	0.163 ± 0.051	1.83 ± 0.11
UCACCA	0.0707 ± 0.26	1.694 ± 0.0047	0.366 ± 0.022	1.84 ± 0.14
GAUUUA	-0.361 ± 0.0081	1.65 ± 0.018	-0.0961 ± 0.03	1.81 ± 0.11
CCAUAA	-0.533 ± 0.16	1.44 ± 0.14	-0.252 ± 0.0063	1.67 ± 0.079
ACAUAG	-0.486 ± 0.035	1.41 ± 0.11	-0.109 ± 0.082	1.66 ± 0.05
ACAUAA	-0.3987 ± 0.0024	1.39 ± 0.12	-0.112 ± 0.0021	1.63 ± 0.063
ACAUAC	-0.256 ± 0.19	1.57 ± 0.056	-0.161 ± 0.28	1.76 ± 0.097
GCAACA	-0.823 ± 0.12	1.55 ± 0.048	-0.56 ± 0.014	1.75 ± 0.12
CCAAAU	-0.277 ± 0.053	1.52 ± 0.099	-0.0208 ± 0.13	1.71 ± 0.074
CCAAAC	-0.366 ± 0.047	1.6 ± 0.019	-0.0651 ± 0.082	1.75 ± 0.14
GCCCUA	-0.142 ± 0.071	1.688 ± 0.013	0.0262 ± 0.042	1.85 ± 0.1
CCACUA	-0.725 ± 0.038	1.43 ± 0.13	-0.348 ± 0.019	1.66 ± 0.067
CCACUU	-0.246 ± 0.072	1.5 ± 0.069	-0.0246 ± 0.1	1.69 ± 0.078
ACACGG	-0.501 ± 0.0065	1.53 ± 0.084	-0.192 ± 0.029	1.69 ± 0.1
ACACGA	-0.4507 ± 0.0033	1.37 ± 0.16	-0.174 ± 0.061	1.55 ± 0.11
UCAGCG	-0.403 ± 0.12	1.83 ± 0.077	-0.141 ± 0.05	1.88 ± 0.099
CCAGUU	0.0604 ± 0.26	1.69 ± 0.04	0.36 ± 0.0063	1.87 ± 0.077
CCAGUA	-0.229 ± 0.044	1.5 ± 0.092	0.134 ± 0.047	1.73 ± 0.12
CCAGUC	-0.422 ± 0.072	1.68 ± 0.023	-0.0312 ± 0.045	1.83 ± 0.077

Variant	FACS-Seq fitted mean (log10) [1]	normalized RNA/DNA level without ligand (log10) [2]	FACS-Seq fitted mean (log10) [3]	normalized RNA/DNA level with ligand (log10) [4]
AAUGGA	-0.46 ± 0.012	1.36 ± 0.11	-0.114 ± 0.0052	1.55 ± 0.066
AAUGGG	-0.71 ± 0.015	1.4 ± 0.11	-0.453 ± 0.035	1.57 ± 0.076
AAUGGC	-0.236 ± 0.066	1.65 ± 0.033	0.153 ± 0.011	1.81 ± 0.061
CCAAGA	-0.572 ± 0.0069	1.47 ± 0.074	-0.208 ± 0.06	1.69 ± 0.13
CCAAGU	-0.377 ± 0.06	1.663 ± 0.013	0.0295 ± 0.007	1.82 ± 0.099
GCAGGU	-0.184 ± 0.0055	1.66 ± 0.054	0.0315 ± 0.013	1.79 ± 0.15
CCACCU	-0.368 ± 0.015	1.66 ± 0.02	-0.107 ± 0.015	1.8 ± 0.096
ACAGAA	-0.5622 ± 0.0028	1.29 ± 0.15	-0.287 ± 0.057	1.47 ± 0.071
ACAGAG	-0.3716 ± 0.0034	1.44 ± 0.14	-0.0973 ± 0.031	1.59 ± 0.052
ACAGAU	-0.584 ± 0.025	1.39 ± 0.072	-0.289 ± 0.018	1.54 ± 0.096
UCCCUG	0.234 ± 0.092	1.776 ± 0.0073	0.44 ± 0.0075	1.89 ± 0.13
UCAGAU	-0.378 ± 0.029	1.49 ± 0.067	-0.0266 ± 0.08	1.67 ± 0.078
UCAAAA	-0.275 ± 0.04	1.46 ± 0.037	-0.0447 ± 0.01	1.68 ± 0.15
GCACGA	-0.471 ± 0.043	1.43 ± 0.093	-0.123 ± 0.049	1.65 ± 0.11
CCAUGC	0.318 ± 0.13	1.673 ± 0.0061	0.419 ± 0.012	1.82 ± 0.11
ACACUA	-0.717 ± 0.027	1.44 ± 0.038	-0.414 ± 0.055	1.66 ± 0.15
GCAAGC	-0.589 ± 0.17	1.63 ± 0.026	-0.514 ± 0.15	1.81 ± 0.14
CCCAGA	-0.192 ± 0.068	1.55 ± 0.021	0.0209 ± 0.061	1.74 ± 0.078
ACCAGU	-0.368 ± 0.064	1.602 ± 0.0077	0.00485 ± 0.036	1.8 ± 0.068
GCCAUU	-0.372 ± 0.0056	1.58 ± 0.016	-0.161 ± 0.13	1.78 ± 0.13
GCCAUA	0.0302 ± 0.039	1.55 ± 0.05	0.269 ± 0.026	1.72 ± 0.069
ACCAAG	-0.4336 ± 0.0033	1.54 ± 0.1	-0.172 ± 0.048	1.71 ± 0.09
ACCAAA	-0.438 ± 0.056	1.49 ± 0.12	-0.0508 ± 0.12	1.71 ± 0.1

Source: the supplement of paper PMC6757056
